Legend:
[1] = molecular target: cathepsin B (from THP-1 cell lysates) (UniProt P07858)
[2] = system: recombinant cystatin C
recombinant cystatin C, sequence (chain, as listed by the source): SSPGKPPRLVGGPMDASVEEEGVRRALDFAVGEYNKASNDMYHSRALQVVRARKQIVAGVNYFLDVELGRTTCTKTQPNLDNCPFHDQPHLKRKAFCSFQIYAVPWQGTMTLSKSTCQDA

cathepsin D, sequence (chain, as listed by the source): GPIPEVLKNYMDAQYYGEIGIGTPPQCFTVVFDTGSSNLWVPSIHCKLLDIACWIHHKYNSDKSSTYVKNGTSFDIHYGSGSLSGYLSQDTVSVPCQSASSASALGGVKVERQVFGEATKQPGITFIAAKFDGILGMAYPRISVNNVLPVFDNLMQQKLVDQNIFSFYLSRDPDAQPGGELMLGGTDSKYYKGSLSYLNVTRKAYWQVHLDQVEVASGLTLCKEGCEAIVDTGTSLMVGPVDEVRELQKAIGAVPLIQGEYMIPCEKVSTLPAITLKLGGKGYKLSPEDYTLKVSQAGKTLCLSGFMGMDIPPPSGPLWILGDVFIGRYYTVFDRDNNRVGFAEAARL

## cathepsin D
[1]
  cathepsin B activity (fluorogenic Ac-Arg-Arg-AFC assay): Cathepsin D and MMP-2 alone had no effect on cathepsin B activity
[2]
  cleavage of recombinant cystatin C: cathepsin D cleaved cystatin C at four different sites, and yielded a 12.5 kD fragment following cleavage from the C terminal region

Source: patent US20100137420
